Test results: paper PMC9846428, “EEPD1 promotes repair of oxidatively-stressed replication forks”

T1: EEPD1 (Homo sapiens) (UniProt Q7L9B9)
T1 sequence: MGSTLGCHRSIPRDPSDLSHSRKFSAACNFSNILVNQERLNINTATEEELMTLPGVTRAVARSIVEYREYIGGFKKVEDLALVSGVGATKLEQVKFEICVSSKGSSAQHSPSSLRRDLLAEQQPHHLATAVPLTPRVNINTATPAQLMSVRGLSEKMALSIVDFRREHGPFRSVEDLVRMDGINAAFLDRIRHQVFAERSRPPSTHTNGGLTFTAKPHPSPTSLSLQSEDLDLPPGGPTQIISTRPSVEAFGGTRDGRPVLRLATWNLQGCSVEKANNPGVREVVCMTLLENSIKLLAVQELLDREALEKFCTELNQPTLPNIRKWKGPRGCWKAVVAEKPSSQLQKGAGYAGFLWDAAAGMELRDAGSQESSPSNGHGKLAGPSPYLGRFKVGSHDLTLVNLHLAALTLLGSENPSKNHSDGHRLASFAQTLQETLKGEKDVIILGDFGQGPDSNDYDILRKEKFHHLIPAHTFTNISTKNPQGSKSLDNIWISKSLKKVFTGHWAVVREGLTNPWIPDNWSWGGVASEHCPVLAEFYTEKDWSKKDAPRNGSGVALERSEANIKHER

T2: EEPD1 (Homo sapiens, UniProt Q7L9B9 1-569)
T2 sequence: T1 sequence

B1: fork DNA without abasic site (Oligos D, F, G, H) (structured_DNA)
DNA 1: CATGCAGCTGATGCGTACAACACACTGTG
DNA 2: TTTTCCCCCCCCCCCGCATCAGCTGCATG
DNA 3: CACAGTGTGTTGTA
DNA 4: GGGGGGGGGGAAAA

Legend:
APE1 (Homo sapiens) = APE1 (Homo sapiens) (UniProt P27695); assay: fluorescence polarization; conditions: 5 nM DNA, no Mg2+ listed, THF at nt 15 of strand 1 (N), EMSA: 20 mM HEPES pH 7.9, 1 mM DTT, 30 mM NaCl, 0.03% NP-40, 10% glycerol, 1 ug poly(dI-dC), 20 min room temperature, FP: 10 mM HEPES pH 7.5, 50 mM KCl
Chain of APE1 (Homo sapiens) (P27695 whole entry): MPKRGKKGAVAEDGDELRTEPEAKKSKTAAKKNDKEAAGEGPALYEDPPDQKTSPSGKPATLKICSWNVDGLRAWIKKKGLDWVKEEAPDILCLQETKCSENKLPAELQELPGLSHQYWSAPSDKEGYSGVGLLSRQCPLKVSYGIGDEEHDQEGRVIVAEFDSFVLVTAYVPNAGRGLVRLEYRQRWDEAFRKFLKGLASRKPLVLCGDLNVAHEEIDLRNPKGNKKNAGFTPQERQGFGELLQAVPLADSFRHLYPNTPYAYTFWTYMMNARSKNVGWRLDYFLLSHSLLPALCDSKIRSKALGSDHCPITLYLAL

EEPD1 (Homo sapiens) = molecular target: T1, EEPD1 (Homo sapiens); assay: fluorescence polarization; conditions: 5 nM DNA, no Mg2+ listed, THF at nt 15 of strand 1 (N), EMSA: 20 mM HEPES pH 7.9, 1 mM DTT, 30 mM NaCl, 0.03% NP-40, 10% glycerol, 1 ug poly(dI-dC), 20 min room temperature, FP: 10 mM HEPES pH 7.5, 50 mM KCl
EEPD1 = molecular target: T2, EEPD1; assay: EMSA; 1 ug poly(dI-dC); less than THF fork; EMSA: 20 mM HEPES pH 7.9, 1 mM DTT, 30 mM NaCl, 0.03% NP-40, 10% glycerol, 1 ug poly(dI-dC), 20 min room temperature; FP: 10 mM HEPES pH 7.5, 50 mM KCl, 5 nM DNA, 0-1000 nM protein; conditions: protein: recombinant; tags: FLAG; label: 32P 5'-end; fork 1:2 1:3 2:4

| Molecule | Kd (APE1 (Homo sapiens)) [nM] | Kd (EEPD1 (Homo sapiens)) [nM] | binding result (EEPD1) |
| --- | --- | --- | --- |
| CATGCAGCTGATGCNTACAACACACTGTG / TTTTCCCCCCCCCCCGCATCAGCTGCATG / CACAGTGTGTTGTA / GGGGGGGGGGAAAA | 21 | 81 |  |
| B1 |  |  | binds |
